{"source": "patent US20250154519", "key": {"[1]": {"test_system": "AceMYBS1 (Actinidia eriantha)", "assay": "cell_activity", "settings": "dual-luciferase, tobacco leaves"}, "[2]": {"test_system": "AceMYBS1 + AceGBF3 (Actinidia eriantha)", "assay": "cell_activity", "settings": "dual-luciferase, co-expression"}}, "data": [{"substance": "AceGGP3 promoter (2.6 kb, P2660)", "values": [{"measurement": "activity", "setting": "[1]", "result": 3.74, "unit": "fold"}, {"measurement": "activity", "setting": "[2]", "result": 6.67, "unit": "fold"}]}]}
